Results taken from US20030170203A1 (Human Genome Sciences, published 2003).

T1: recombinant, untagged TNF-gamma-beta protein (aa 72-251) from E. coli (human, UniProt O95150 72-251)
T1 construct: Purified from E. coli
T1 sequence (looked up): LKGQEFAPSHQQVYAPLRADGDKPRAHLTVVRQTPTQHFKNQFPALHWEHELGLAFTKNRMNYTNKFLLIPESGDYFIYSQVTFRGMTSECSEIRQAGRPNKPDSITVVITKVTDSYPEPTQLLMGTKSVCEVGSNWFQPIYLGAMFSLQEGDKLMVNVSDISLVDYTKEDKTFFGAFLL

T2: FADD (UniProt Q13158 1-208)
T2 construct: 35S-labeled by in vitro transcription-translation for the GST pull-down; also called AU1-FADD; FADD/MORT1
T2 sequence (looked up): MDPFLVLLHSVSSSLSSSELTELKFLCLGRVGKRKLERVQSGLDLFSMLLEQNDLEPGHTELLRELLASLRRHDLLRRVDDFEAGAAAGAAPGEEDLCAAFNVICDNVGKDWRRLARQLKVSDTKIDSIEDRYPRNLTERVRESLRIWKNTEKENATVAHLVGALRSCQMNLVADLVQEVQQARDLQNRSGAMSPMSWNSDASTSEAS

T3: RIP (UniProt Q13546 1-671, limits assumed)
T3 construct: 35S-labeled by in vitro translation for the GST pull-down; also called myc-RIP
T3 sequence (looked up): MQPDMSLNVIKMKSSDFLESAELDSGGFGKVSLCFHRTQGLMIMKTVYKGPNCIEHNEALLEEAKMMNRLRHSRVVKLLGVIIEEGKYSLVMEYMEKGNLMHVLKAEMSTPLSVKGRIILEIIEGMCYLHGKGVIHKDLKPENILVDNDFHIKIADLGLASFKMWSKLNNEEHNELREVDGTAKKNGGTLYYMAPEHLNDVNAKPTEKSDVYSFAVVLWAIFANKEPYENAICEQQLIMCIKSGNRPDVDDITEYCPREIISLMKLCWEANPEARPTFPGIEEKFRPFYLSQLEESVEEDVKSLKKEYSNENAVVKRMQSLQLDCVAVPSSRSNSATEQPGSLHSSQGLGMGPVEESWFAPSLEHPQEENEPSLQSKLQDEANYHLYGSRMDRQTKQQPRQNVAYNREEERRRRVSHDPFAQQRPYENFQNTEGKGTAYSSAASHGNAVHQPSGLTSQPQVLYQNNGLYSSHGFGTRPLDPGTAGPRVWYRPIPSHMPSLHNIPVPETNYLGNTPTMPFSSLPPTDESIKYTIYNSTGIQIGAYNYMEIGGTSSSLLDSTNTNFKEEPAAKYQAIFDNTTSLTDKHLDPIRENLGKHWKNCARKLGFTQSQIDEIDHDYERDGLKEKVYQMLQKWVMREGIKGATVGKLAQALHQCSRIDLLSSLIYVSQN

T4: non-tagged form of TR6 (UniProt O95407 30-300)
T4 construct: also called TNFR-6 alpha; DcR3
T4 sequence (looked up): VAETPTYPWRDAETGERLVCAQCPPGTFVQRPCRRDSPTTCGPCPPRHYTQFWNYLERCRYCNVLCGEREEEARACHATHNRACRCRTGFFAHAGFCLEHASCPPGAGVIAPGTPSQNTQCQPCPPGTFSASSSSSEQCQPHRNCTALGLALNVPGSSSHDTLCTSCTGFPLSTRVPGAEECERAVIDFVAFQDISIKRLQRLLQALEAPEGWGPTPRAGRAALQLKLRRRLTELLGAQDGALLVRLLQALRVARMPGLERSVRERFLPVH

T5: Fc-fusion form of the extracellular domain of DR6 (UniProt O75509 42-349, limits assumed)
T5 construct: extracellular domain; not shown: Fc
T5 sequence (looked up): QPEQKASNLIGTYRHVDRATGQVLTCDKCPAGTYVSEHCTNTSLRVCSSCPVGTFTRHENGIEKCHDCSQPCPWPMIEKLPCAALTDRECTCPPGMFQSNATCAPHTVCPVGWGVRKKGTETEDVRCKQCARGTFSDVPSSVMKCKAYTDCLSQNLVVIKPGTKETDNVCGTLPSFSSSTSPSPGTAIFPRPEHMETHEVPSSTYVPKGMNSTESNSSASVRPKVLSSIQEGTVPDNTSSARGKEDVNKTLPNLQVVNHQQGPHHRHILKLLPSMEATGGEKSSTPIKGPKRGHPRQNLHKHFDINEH

B1: Fc-fusion form of the extracellular domain of OX40 (Fc fusion, UniProt P43489 29-214, looked up)
chain: LHCVGDTYPSNDRCCHECRPGNGMVSRCSRSQNTVCRPCGPGFYNDVVSSKPCKPCTWCNLRSGSERKQLCTATQDTVCRCRAGTQPLDSYKPGVDCAPCPPGHFSPGDNQACKPWTNCTLAGKHTLQPASNSSDAICEDRDPPATQPQETQGPPARPITVQPTEAWPRTSQGPSTRPVEVPGGRA
notes: extracellular domain; not shown: Fc
B2: Fc-fusion form of the extracellular domain of RANK (Fc fusion, UniProt Q9Y6Q6 30-212, looked up)
chain: IAPPCTSEKHYEHLGRCCNKCEPGKYMSSKCTTTSDSVCLPCGPDEYLDSWNEEDKCLLHKVCDTGKALVAVVAGNSTTPRRCACTAGYHWSQDCECCRRNTECAPGLGAQHPLQLNKDTVCKPCLAGYFSDAFSSTDKCRPWTNCTFLGKRVEHHGTEKSDAVCSSSLPARKPPNEPHVYLP
notes: as for B1
B3: extracellular domain of human DR3 (aa 1-199) fused at its C-terminus to the Fc domain of human IgG1 (Fc fusion, not shown: a dimerising Fc or GST)
chain: QGGTRSPRCDCAGDFHKKIGLFCCRGCPAGHYLKAPCTEPCGNSTCLVCPQDTFLAWENHHNSECARCQACDEQASQVALENCSAVADTRCGCKPGWFVECQVSQCVSSSPFYCQPCLDCGALHRHTRLLCSRRDTDCGTCLPGFYEHGDGCVSCPTSTLGSCPERCAAVCGWRQ
notes: also called DR3-Fc; DR3.Fc
B4: GST fusion of the cytoplasmic domain of DR3 (amino acid residues 215-393 (SEQ ID NO:4)) (other)
chain: AGMEALTPPPATHLSPLDSAHTLLAPPDSSEKICTVQLVGNSWTPGYPETQEALCPQVTWSWDQLPSRALGPAAAPTLSPESPAGSPAMMLQPGPQLYDVMDAVPARRWKEFVRTLGLREAEIEAVEVEIGRFRDQQYEMLKRWRQQQPAGLGAVYAALERMGLDGCVEDLRSRLQRGP
notes: Made in E. coli BL21 (DE3) pLysS and immobilized on glutathione-agarose beads; The results paragraph calls it GST-DDCR (DDCR is the former name of DR3); also called GST-DR3; GST-DDCR; not shown: glutathione S-transferase from vector pGSTag
B5: Fc-fusion form of the extracellular domain of DcR1 (Fc fusion, UniProt O14798 26-221, looked up)
chain: ATTARQEEVPQQTVAPQQQRHSFKGEECPAGSHRSEHTGACNPCTEGVDYTNASNNEPSCFPCTVCKSDQKHKSSCTMTRDTVCQCKEGTFRNENSPEMCRKCSRCPSGEVQVSNCTSWDDIQCVEEFGANATVETPAAEETMNTSPGTPAPAAEETMNTSPGTPAPAAEETMTTSPGTPAPAAEETMTTSPGTPA
notes: as for B1
B6: Fc-fusion form of the extracellular domain of OPG (Fc fusion, UniProt O00300 22-194, looked up)
chain: ETFPPKYLHYDEETSHQLLCDKCPPGTYLKQHCTAKWKTVCAPCPDHYYTDSWHTSDECLYCSPVCKELQYVKQECNRTHNRVCECKEGRYLEIEFCLKHRSCPPGFGVVQAGTPERNTVCKRCPDGFFSNETSSKAPCRKHTNCSVFGLLLTQKGNATHDNICSGNSESTQK
notes: as for B1
B7: Fc-fusion form of the extracellular domain of AITR (Fc fusion, UniProt Q9Y5U5 26-162, looked up)
chain: QRPTGGPGCGPGRLLLGTGTDARCCRVHTTRCCRDYPGEECCSEWDCMCVQPEFHCGDPCCTTCRHHPCPPGQGVQSQGKFSFGFQCIDCASGTFSGGHEGHCKPWTDCTQFGFLTVFPGNKTHNAVCVPGSPPAEP
notes: as for B1
B8: Fc-fusion form of the extracellular domain of DcR2 (Fc fusion, UniProt Q9UBN6 56-211, looked up)
chain: ATIPRQDEVPQQTVAPQQQRRSLKEEECPAGSHRSEYTGACNPCTEGVDYTIASNNLPSCLLCTVCKSGQTNKSSCTTTRDTVCQCEKGSFQDKNSPEMCRTCRTGCPRGMVKVSNCTPRSDIKCKNESAASSTGKTPAAEETVTTILGMLASPYH
notes: as for B1
B9: full length TNF-gamma-beta expressed on the cell surface (ligand, human, UniProt O95150 1-251, looked up)
chain: MAEDLGLSFGETASVEMLPEHGSCRPKARSSSARWALTCCLVLLPFLAGLTTYLLVSQLRAQGEACVQFQALKGQEFAPSHQQVYAPLRADGDKPRAHLTVVRQTPTQHFKNQFPALHWEHELGLAFTKNRMNYTNKFLLIPESGDYFIYSQVTFRGMTSECSEIRQAGRPNKPDSITVVITKVTDSYPEPTQLLMGTKSVCEVGSNWFQPIYLGAMFSLQEGDKLMVNVSDISLVDYTKEDKTFFGAFLL
notes: whole, on cells; also called TNF-gamma-beta expressing cells
B10: Fc-fusion form of the extracellular domain of TNFR1 (Fc fusion, UniProt P19438 30-211, looked up)
chain: LVPHLGDREKRDSVCPQGKYIHPQNNSICCTKCHKGTYLYNDCPGPGQDTDCRECESGSFTASENHLRHCLSCSKCRKEMGQVEISSCTVDRDTVCGCRKNQYRHYWSENLFQCFNCSLCLNGTVHLSCQEKQNTVCTCHAGFFLRENECVSCSNCKKSLECTKLCLPQIENVKGTEDSGTT
notes: extracellular domain; also called TNFR1-Fc; TNFRI.Fc; not shown: Fc

What was measured:
[1] = target: B9; test: flow cytometry on HEK293F stable transfectants expressing full length TNF-gamma-beta
Description: (§1) TR6 has been previously described as a decoy receptor (Pitti et al., Nature 396:699-703 (1998); Yu et al., J. Biol Chem. 274:13733-6 (1999)) capable of competing with Fas and HveA for binding of FasL and LIGHT, respectively.
(§2) One million cells, in 0.1 ml of FACS buffer (PBS, 0.1% BSA, 0.1% NaN₃), were incubated with 0.1-1 microgram of protein or antibody at RT for 15 min. The cells were washed with 3 ml of FACS buffer, reacted with biotinylated primary antibody, and stained with PE-conjugated secondary antibody at RT for 15 min. Cells were then washed again, resuspended in 0.5 microgram/ml of propidium iodide, and live cells were gated and analyzed on a FACScan using the CellQuest software (BD Biosciences).

[2] = target: T1, recombinant, untagged TNF-gamma-beta …; test: BIAcore 3000 (SPR), DR3-Fc amine-coupled to CM5 chip, TNF-gamma-beta 3-370 nM in flow, 1:1 binding model; DR3-Fc on the chip
Description: (§3) TNFR-Fc were covalently immobilized to the BIAcore sensor chip (CM5 chip) via amine groups using N-ethyl-N′-(dimethylaminopropyl) carbodiimide/N-hydroxysuccinimide chemistry. […] The amount of bound protein was determined during washing of the flow cell with HBS buffer (10 mM HEPES, pH 7.4, 150 mM NaCl, 3.4 mM EDTA, 0.005% Surfactant P20). The flow cell surface was regenerated by displacing bound protein by washing with 20 microliters of 10 mM glycine-HCl, pH 2.3. For kinetic analysis, the on and off rates were determined using the kinetic evaluation program in BIAevaluation 3 software using a 1:1 binding model and the global analysis method.

[3] = target: T1, recombinant, untagged TNF-gamma-beta …; test: BIAcore 3000 (SPR), DR3-Fc amine-coupled to CM5 chip, three batches of TNF-gamma-beta, 1:1 binding model; DR3-Fc; average of three batches of TNF-gamma-beta
Description: as §3

[4] = target: T2, FADD; test: GST pull-down of in vitro translated 35S-labeled protein, SDS-PAGE and autoradiography
Description: (§4) In vitro binding experiments were performed as described previously (A. M. Chinnaiyan et al., Cell 81: 505-12 (1995); M. P. Boldin et al., J Biol Chem 270: 7795-8 (1995); F. C. Kischkel etal., EMBO 14: 5579-5588 (1995)). […] Following translation, equal amounts of total ³⁵S-labeled reticulocyte lysate were diluted into 150 μl GST binding buffer (50 mM Tris, pH 7.6,120 mM NaCl, 1% NP-40) and incubated for 2 hrs. at 4° C. with the various GST fusion proteins complexed to beads, following the beads were pelleted by plus centrifugation, washed three times in GST buffer, boiled in SDS-sample buffer and resolved on a 12.5% SDS-PAGE. Bound proteins were visualized following autoradioraphy at −80° C. […] After the beads were washed, retained proteins were analyzed by SDS-PAGE and autoradiography. The gel was Coomassie stained to monitor equivalency of loading.
(§5) As an initial screen, in vitro translated radiolabeled DAMs were precipitated with various glutathione S-transferase (GST) fusion proteins immobilized on glutathione-Sepharose beads.

[5] = target: T3, RIP; test: as above
Description: as §4, §5

[6] = target: T4, non-tagged form of TR6; test: flow cytometry, competition with DR3-Fc for TNF-gamma-beta on HEK293F cells
Description: as §1, §2

[7] = target: T5, Fc-fusion form of the extracellular …; test: flow cytometry on HEK293F stable transfectants expressing full length TNF-gamma-beta
Description: as §1, §2

binding result [1] | Binder | further results
no binding | B1 | –
no binding | B2 | –
– | B3 | koff [2]: 0.00413 s⁻¹; kon [2]: 639000 M⁻¹ s⁻¹; Kd [3]: 6.45 nM
– | B4 | binding result [4]: no binding; binding result [5]: no binding
no binding | B5 | –
no binding | B6 | –
no binding | B7 | –
no binding | B8 | –
– | B9 | binding result [6]: binds; binding result [7]: no binding
no binding | B10 | –
